Tested on: Human keratinocytes (HaCaT)
Test: Cell scratch assay
Assay type: cell-based
Details: 24 h after scratch, peptides 12.5 ppm, EGF 50 U/mL, compared with blank control, FIG. 8
Experimental: Human keratinocytes (HaCaT) were purchased from the Kunming Cell Bank of China Center for Type Culture Collection under the Chinese Academy of Sciences.
Polypeptide group: Peptide (13) and peptide (20). The test concentrations of all the above samples were 12.5 ppm.
Blank control group: PBS.
Positive control group: 50 U/mL of EGF.
A bottle of HaCaT cells in good exponential growth phase was taken. A 0.25% trypsin digestion solution was added so that digestion allowed the adherent cells to fall off, counting 1 to 4×10^5 cells/mL, which were prepared into a cell suspension.
The cells were inoculated into a 24-well plate at a density of 150,000 cells/well, with 2 mL cell suspension per well. After the cells attached to the wall and grew to 100% confluence, the culture medium was replaced with a medium containing 0.5%-1% fetal bovine serum to maintain the cells for 24 h for synchronization. A sterilized pipette tip was used to scratch a wound, the detached cells were washed off with PBS, and the samples to be tested were added. The incubation was continued in the 5% CO2 incubator at 37° C., and the migration of cells was observed under an optical microscope after 24 h.
The scratch migration experiment of cells can reflect the proliferation and repair ability of cells. […]

B1: EGF: positive control group: 50 U/mL of EGF in the cell scratch assay (protein, UniProt P01133 23-1207, looked up)
Pro-epidermal growth factor: PQHWSCPEGTLAGNGNSTCVGPAPFLIFSHGNSIFRIDTEGTNYEQLVVDAGVSVIMDFHYNEKRIYWVDLERQLLQRVFLNGSRQERVCNIEKNVSGMAINWINEEVIWSNQQEGIITVTDMKGNNSHILLSALKYPANVAVDPVERFIFWSSEVAGSLYRADLDGVGVKALLETSEKITAVSLDVLDKRLFWIQYNREGSNSLICSCDYDGGSVHISKHPTQHNLFAMSLFGDRIFYSTWKMKTIWIANKHTGKDMVRINLHSSFVPLGELKVVHPLAQPKAEDDTWEPEQKLCKLRKGNCSSTVCGQDLQSHLCMCAEGYALSRDRKYCEDVNECAFWNHGCTLGCKNTPGSYYCTCPVGFVLLPDGKRCHQLVSCPRNVSECSHDCVLTSEGPLCFCPEGSVLERDGKTCSGCSSPDNGGCSQLCVPLSPVSWECDCFPGYDLQLDEKSCAASGPQPFLLFANSQDIRHMHFDGTDYGTLLSQQMGMVYALDHDPVENKIYFAHTALKWIERANMDGSQRERLIEEGVDVPEGLAVDWIGRRFYWTDRGKSLIGRSDLNGKRSKIITKENISQPRGIAVHPMAKRLFWTDTGINPRIESSSLQGLGRLVIASSDLIWPSGITIDFLTDKLYWCDAKQSVIEMANLDGSKRRRLTQNDVGHPFAVAVFEDYVWFSDWAMPSVMRVNKRTGKDRVRLQGSMLKPSSLVVVHPLAKPGADPCLYQNGGCEHICKKRLGTAWCSCREGFMKASDGKTCLALDGHQLLAGGEVDLKNQVTPLDILSKTRVSEDNITESQHMLVAEIMVSDQDDCAPVGCSMYARCISEGEDATCQCLKGFAGDGKLCSDIDECEMGVPVCPPASSKCINTEGGYVCRCSEGYQGDGIHCLDIDECQLGEHSCGENASCTNTEGGYTCMCAGRLSEPGLICPDSTPPPHLREDDHHYSVRNSDSECPLSHDGYCLHDGVCMYIEALDKYACNCVVGYIGERCQYRDLKWWELRHAGHGQQQKVIVVAVCVVVLVMLLLLSLWGAHYYRTQKLLSKNPKNPYEESSRDVRSRRPADTEDGMSSCPQPWFVVIKEHQDLKNGGQPVAGEDGQAADGSMQPTSWRQEPQLCGMGTEQGCWIPVSSDKGSCPQVMERSFHMPSYGTQTLEGGVEKPHSLLSANPLWQQRALDPPHQMELTQ
modifications: Pro-epidermal growth factor
notes: positive control group: 50 U/mL of EGF in the cell scratch assay
Q: For B1, which “cell proliferation and migration (scratch spacing)” value is on record?
A: obvious cell proliferation and migration

— patent publication US20260049103A1, “PEPTIDE, AND COMPOSITION THEREOF AND USE THEREOF” (WINKEY TECHNOLOGY USA INC, priority 2023, published 2026)
